This data set deals with the molecule itself. Put plainly: cryo-EM structure; amyloid fibrils formed at 30 uM protein in 20 mM sodium acetate pH 4.0, 37 °C with rotation, four rounds of sequential seeding (10% w/w sonicated fibrils); helical reconstruction of twisted fibrils, 3.2 Å.

B1: TDP-43 low complexity domain (transactive response DNA-binding protein of 43 kDa, C-terminal low-complexity domain) (domain or fragment, UniProt Q13148 267-414, looked up)
chain: NRQLERSGRFGGNPGGFGNQGGFGNSRGGGAGLGNNQGSNMGGGMNFGAFSINPAMMAAAQAALQSSWGMMGMLASQQNQSGPSGNNQNQGNMQREPNQAFGSGNNSYSGSNSGAAIGWGSASNAGSGSGFNGGFGSSMDSKSSGWGM
notes: TDP-43, entire C-terminal low-complexity domain; Wild-type, non-phosphorylated; The assayed form is an amyloid fibril: a single protofilament of stacked subunits with an ordered core of residues 276-414; Five chains were built in the model; also called TDP-43 LCD; LCD; source: Rosetta (DE3) pLysS cells, purified (Ni-NTA in 8 M urea, HPLC on a C4 column), lyophilized
Take B1: the binding result was “binds”.
